Assay results from patent US20240002547A1 (AEBI, published 2024).
Positions of bridges follow the written chain, without caps; N, C: chain ends. No end group written: not given here.

Target: human eukaryotic elongation factor 2 (eEF2) (human, UniProt P13639 2-858)
Experiment: peptide screening by the technique of WO 2007/010525

Row | Binder | binding result
1 | CSARWGPTMPWC (disulfide 1-12 (inferred)) [Tox1] | binds
2 | CRRGSRASGAHC (disulfide 1-12 (inferred)) [Tox2] | binds
